Measured values reported in patent US20170066831A1 (Janssen / Centocor, published 2017).
Residue numbers refer to the chain shown, from its start.

B1: STLM203 (antibody, V domains shown)
VH: EVQLVQSGAEVKKPGATVKISCKVSAFNIKDDYMHWVQQAPGKGLEWMGRIDPAIGNTEYAEKFQGRVTITADTSTDTAYMELSSLRSEDTAVYYCATGDFYAMDYWGQGTLVTVSS
VL: DIQMTQSPSSLSASVGDRVTITCITNTDIDDVIHWYQQKPGKAPKLLIYEGNTLRPGVPSRFSGSGSGTDFTLTISSLQPEDFATYYCLQSDNMLTFGQGTKLEIK
notes: C2494 HFA mAb: VH STLH194 + VL STLL274 (O12)
B2: STLM199 (antibody, V domains shown)
VH: B1 VH
VL: EIVMTQSPATLSVSPGERATLSCITNTDIDDVIHWYQQKPGQAPRLLIYEGNTLRPGIPARFSGSGSGTEFTLTISSLQSEDFAVYYCLQSDNMLTFGQGTKLEIK
notes: C2494 HFA mAb: VH STLH194 + VL STLL278 (L2)
B3: STLM197 (antibody, V domains shown)
VH: B1 VH
VL: B1 VL with M94L
notes: C2494 HFA mAb: VH STLH194 (IGHV1-f*01) + VL STLL280 (O12b)
B4: STLM192 (antibody, V domains shown)
VH: B1 VH with E1Q, T17S, I20V, Q38R, E62P, G66D, I70M, A72E
VL: B1 VL with L11V
notes: C2494 HFA mAb: VH STLH195 + VL STLL275 (L5)
B5: STLM191 (antibody, V domains shown)
VH: B1 VH with E1Q, T17S, I20V, Q38R, E62P, G66D, I70M, A72E
VL: B1 VL with S10T, D70E, E81D
notes: C2494 HFA mAb: VH STLH195 + VL STLL276 (L12)
B6: STLM201 (antibody, V domains shown)
VH: B1 VH
VL: B1 VL with S10T, D70E, E81D
notes: C2494 HFA mAb: VH STLH194 + VL STLL276 (L12)
B7: STLM194 (antibody, V domains shown)
VH: B1 VH with E1Q, T17S, I20V, Q38R, E62P, G66D, I70M, A72E
VL: B1 VL with A43V, F83V
notes: C2494 HFA mAb: VH STLH195 + VL STLL273 (A20)
B8: STLM187 (antibody, V domains shown)
VH: B1 VH with E1Q, T17S, I20V, Q38R, E62P, G66D, I70M, A72E
VL: B1 VL with M94L
notes: C2494 HFA mAb: VH STLH195 (IGHV1-24*01) + VL STLL280 (O12b)
B9: STLM200 (antibody, V domains shown)
VH: B1 VH
VL: B1 VL with M4L, S10F, D70E
notes: C2494 HFA mAb: VH STLH194 + VL STLL277 (L8)
B10: STLM190 (antibody, V domains shown)
VH: B1 VH with E1Q, T17S, I20V, Q38R, E62P, G66D, I70M, A72E
VL: B1 VL with M4L, S10F, D70E
notes: C2494 HFA mAb: VH STLH195 + VL STLL277 (L8)
B11: STLM205 (antibody, V domains shown)
VH: B1 VH
VL: B1 VL with L73F, F83I
notes: C2494 HFA mAb: VH STLH194 + VL STLL272 (O18)
B12: STLM193 (antibody, V domains shown)
VH: B1 VH with E1Q, T17S, I20V, Q38R, E62P, G66D, I70M, A72E
VL: B1 VL
notes: C2494 HFA mAb: VH STLH195 + VL STLL274 (O12)
B13: STLM195 (antibody, V domains shown)
VH: B1 VH with E1Q, T17S, I20V, Q38R, E62P, G66D, I70M, A72E
VL: B1 VL with L73F, F83I
notes: C2494 HFA mAb: VH STLH195 + VL STLL272 (O18)
B14: STLM204 (antibody, V domains shown)
VH: B1 VH
VL: B1 VL with A43V, F83V
notes: C2494 HFA mAb: VH STLH194 + VL STLL273 (A20)
B15: STLM202 (antibody, V domains shown)
VH: B1 VH
VL: B1 VL with L11V
notes: C2494 HFA mAb: VH STLH194 + VL STLL275 (L5)
B16: STLM220 (antibody, V domains shown)
VH: EVQLLESGGGLVQPGGSLRLSCAASGFTFSFYDMFWVRQAPGKGLEWVSDIRGEGGGTAYADSVKGRFTISRDNSKNTLYLQMNSLRAEDTAVYYCARDPWSTEGSFFVLDYWGQGTLVTVSS
VL: EIVLTQSPATLSLSPGERATLSCRASQSVDDDLAWYQQKPGQAPRLLIYDASNRATGIPARFSGSGSGTDFTLTISSLEPEDFAVYYCQQYIGAPITFGQGTKVEIK
notes: frameworks VH3-23 / Vk-L6

Experiments:
[1] = target: T1, human ST2L extracellular domain with C-terminal His6 tag (human, UniProt Q01638 19-328); test: ProteOn SPR, mAb captured, ST2L-ECD in solution
T1 construct: also called huST2L-ECD; ST2L-ECD
T1 sequence: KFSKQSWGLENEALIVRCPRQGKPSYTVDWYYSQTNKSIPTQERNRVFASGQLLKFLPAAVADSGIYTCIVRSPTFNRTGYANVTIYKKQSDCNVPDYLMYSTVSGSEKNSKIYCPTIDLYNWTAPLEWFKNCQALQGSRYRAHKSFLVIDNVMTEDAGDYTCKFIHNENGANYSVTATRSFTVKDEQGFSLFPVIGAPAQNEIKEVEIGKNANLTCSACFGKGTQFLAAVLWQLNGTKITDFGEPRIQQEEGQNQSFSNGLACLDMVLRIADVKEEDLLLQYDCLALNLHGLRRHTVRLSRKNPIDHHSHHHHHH
Experimental: (§1) The affinities were analyzed by ProteOn. The experiments were performed at 25° C. using ProteOn's PBS-T-E buffer (PBS, 0.005% P20 and 3 mM EDTA) as running buffer. […] Mab capture was followed by injection of ST2L-ECD from 0.024-15 nM (5-fold dilutions) for 4 min (200 μL at 50 μL/min). The dissociation was monitored for 30 minutes for all reaction. Regeneration was performed using two 15 sec pulses of 10 mM glycine pH1.5. The data was fitted to a 1:1 with baseline drift model.
(§2) Association rates for the samples are fast, the langmuir with mass transfer model was used for curve fitting and estimation of Affinity. All of the samples had faster off rates than the parental clone and control Mab. The difference in off rate was the primary contributor to the lower affinity of the HFA variants when compared to the parent antibody.

[2] = target: T2, cynomolgus (Macaca fascicularis) ST2L extracellular domain with C-terminal His6 tag (Macaca fascicularis (cynomolgus), UniProt Q01638 19-321 (human entry)); test: ProteOn SPR, mAb captured, ST2L-ECD in solution
T2 construct: also called cyno ST2L-ECD; cynoST2L-ECD
T2 chain: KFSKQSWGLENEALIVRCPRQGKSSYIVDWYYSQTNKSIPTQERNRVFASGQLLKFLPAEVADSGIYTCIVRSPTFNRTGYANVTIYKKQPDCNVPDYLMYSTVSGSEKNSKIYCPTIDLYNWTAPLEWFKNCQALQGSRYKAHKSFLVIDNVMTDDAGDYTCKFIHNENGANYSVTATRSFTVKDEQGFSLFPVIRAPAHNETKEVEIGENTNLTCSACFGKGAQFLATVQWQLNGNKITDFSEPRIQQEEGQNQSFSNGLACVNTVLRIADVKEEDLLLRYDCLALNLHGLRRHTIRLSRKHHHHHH
Experimental: as §1, §2

[3] = target: T1, human ST2L extracellular domain with …; test: RLB ELISA: biotinylated IL-33 on coated huST2L-ECD, antibody titrated
Experimental: 96-well plate was coated with 50 μl of 4 μg/ml human ST2L-ECD (amino acids 19-328 of SEQ ID NO: 1) or 2 μg/ml cyno ST2L-ECD (amino acids 19-321 of SEQ ID NO: 2) having C-terminal His₆ tag in bicarbonate buffer at 4° C. for 16 hrs. All subsequent steps were performed at room temperature. Plate was blocked with 200 μl blocking buffer, and was washed 3 times with 300 μl of wash buffer containing PBS+0.05% Tween. 30 μl of various dilutions of anti-ST2L mAbs were added to the wells and incubated for 1 hour. For human receptor-ligand binding assay 20 μl of biotinylated human IL-33 (residues 112-270 of SEQ ID NO: 3) was added at 100 ng/ml final concentration and incubated for 30 minutes. For cyno receptor-ligand binding assay 20 μl of biotinylated cyno IL-33 (residues 112-269 of SEQ ID NO: 4) was added at 200 ng/ml final concentration and incubated for 30 minutes. The plate was washed 3 times with 300 μl of wash buffer. 50 μl of 0.2 μg/ml Streptavidin-HRP (Jackson Immunoresearch) was added and incubated for 30 min. The plate was washed 3 times with 300 μl of wash buffer containing PBS+0.05% Tween. 50 μl of TMB substrate (EMD Biosciences) was added to each well. Reaction was stopped by the addition of 100 μl of 0.2N Sulfuric Acid. OD450 were measured using Envision plate reader (Perkin Elmer).

[4] = target: T1, human ST2L extracellular domain with …; test: SPR, mAb captured, ST2L-ECD in solution
[5] = target: T2, cynomolgus (Macaca fascicularis) ST2L …; test: SPR, mAb captured, ST2L-ECD in solution
[6] = target: T3, human ST2L, full length, on cells (human, UniProt Q01638 19-556); test: cell-based or functional assay
T3 sequence: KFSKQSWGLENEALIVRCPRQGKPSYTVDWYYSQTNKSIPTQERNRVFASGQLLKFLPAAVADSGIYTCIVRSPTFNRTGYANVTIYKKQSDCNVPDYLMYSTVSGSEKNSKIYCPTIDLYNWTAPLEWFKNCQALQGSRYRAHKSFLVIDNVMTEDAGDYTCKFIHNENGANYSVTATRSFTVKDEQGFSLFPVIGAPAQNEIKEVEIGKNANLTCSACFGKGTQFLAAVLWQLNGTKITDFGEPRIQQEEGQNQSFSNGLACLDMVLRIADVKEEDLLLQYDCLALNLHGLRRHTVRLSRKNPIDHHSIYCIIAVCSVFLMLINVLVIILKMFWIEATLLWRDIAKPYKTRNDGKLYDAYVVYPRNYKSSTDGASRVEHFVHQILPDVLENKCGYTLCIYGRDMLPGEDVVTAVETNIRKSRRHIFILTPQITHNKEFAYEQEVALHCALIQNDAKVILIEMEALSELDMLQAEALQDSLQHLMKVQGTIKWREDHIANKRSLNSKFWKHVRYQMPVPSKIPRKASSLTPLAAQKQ

Binder | Kd [1] | koff [1] | kon [1] | Kd [2] | koff [2] | kon [2] | IC50 [3] | Kd [4] | koff [4] | kon [4] | Kd [5] | koff [5] | kon [5] | RGA IC50 [6]
B1 | 0.0473 nM | 0.000967 s⁻¹ | 2.04e+07 M⁻¹ s⁻¹ | 0.111 nM | 0.00656 s⁻¹ | 5.88e+07 M⁻¹ s⁻¹ |  |  |  |  |  |  |  | 
B2 | 0.0414 nM | 0.000897 s⁻¹ | 2.17e+07 M⁻¹ s⁻¹ | 0.0845 nM | 0.00657 s⁻¹ | 7.78e+07 M⁻¹ s⁻¹ |  |  |  |  |  |  |  | 
B3 | 0.0885 nM | 0.00162 s⁻¹ | 1.83e+07 M⁻¹ s⁻¹ | 0.232 nM | 0.00688 s⁻¹ | 2.97e+07 M⁻¹ s⁻¹ |  |  |  |  |  |  |  | 
B4 | 0.42 nM | 0.00885 s⁻¹ | 2.11e+07 M⁻¹ s⁻¹ | 0.999 nM | 0.0999 s⁻¹ | 1e+08 M⁻¹ s⁻¹ |  |  |  |  |  |  |  | 
B5 | 0.292 nM | 0.0247 s⁻¹ | 8.46e+07 M⁻¹ s⁻¹ | 0.666 nM | 0.0666 s⁻¹ | 1e+08 M⁻¹ s⁻¹ |  |  |  |  |  |  |  | 
B6 | 0.0484 nM | 0.000852 s⁻¹ | 1.76e+07 M⁻¹ s⁻¹ | 0.116 nM | 0.0041 s⁻¹ | 3.55e+07 M⁻¹ s⁻¹ |  |  |  |  |  |  |  | 
B7 | 0.703 nM | 0.0703 s⁻¹ | 1e+08 M⁻¹ s⁻¹ | 1.9 nM | 0.19 s⁻¹ | 1e+08 M⁻¹ s⁻¹ |  |  |  |  |  |  |  | 
B8 | 0.473 nM | 0.0159 s⁻¹ | 3.37e+07 M⁻¹ s⁻¹ | 1.1 nM | 0.11 s⁻¹ | 1e+08 M⁻¹ s⁻¹ |  |  |  |  |  |  |  | 
B9 | 0.0608 nM | 0.00143 s⁻¹ | 2.35e+07 M⁻¹ s⁻¹ | 0.134 nM | 0.011 s⁻¹ | 8.23e+07 M⁻¹ s⁻¹ |  |  |  |  |  |  |  | 
B10 | 0.534 nM | 0.0534 s⁻¹ | 1e+08 M⁻¹ s⁻¹ | 1.02 nM | 0.102 s⁻¹ | 1e+08 M⁻¹ s⁻¹ |  |  |  |  |  |  |  | 
B11 | 0.0401 nM | 0.000695 s⁻¹ | 1.73e+07 M⁻¹ s⁻¹ | 0.1 nM | 0.00404 s⁻¹ | 4.04e+07 M⁻¹ s⁻¹ |  |  |  |  |  |  |  | 
B12 | 0.267 nM | 0.0127 s⁻¹ | 4.77e+07 M⁻¹ s⁻¹ | 0.932 nM | 0.0932 s⁻¹ | 1e+08 M⁻¹ s⁻¹ |  |  |  |  |  |  |  | 
B13 | 0.271 nM | 0.00673 s⁻¹ | 2.49e+07 M⁻¹ s⁻¹ | 0.719 nM | 0.0719 s⁻¹ | 1e+08 M⁻¹ s⁻¹ |  |  |  |  |  |  |  | 
B14 | 0.0813 nM | 0.00241 s⁻¹ | 2.97e+07 M⁻¹ s⁻¹ | 0.205 nM | 0.0205 s⁻¹ | 1e+08 M⁻¹ s⁻¹ |  |  |  |  |  |  |  | 
B15 | 0.0529 nM | 0.00119 s⁻¹ | 2.24e+07 M⁻¹ s⁻¹ | 0.134 nM | 0.0104 s⁻¹ | 7.75e+07 M⁻¹ s⁻¹ |  |  |  |  |  |  |  | 
B16 |  |  |  |  |  |  | 0.39 µg/mL | 0.016 nM | 9.53e-05 s⁻¹ | 5.8e+06 M⁻¹ s⁻¹ | 9 pM | 0.00014 s⁻¹ | 1.6e+07 M⁻¹ s⁻¹ | 0.6 µg/mL
